# Substitutions are numbered along the chain they refer to.
# B1: T1: wheat EPSPS mutant, SEQ ID NO: 16, mutation S269(247)G (protein)
# chain: MATSVAAPAAPAGAEEVVLQPIREISGAVQLPGSKSLSNRILLLSALSEGTTVVDNLLNSEDVHYMLEALEALGLSVEADKVAKRAVVVGCGGRFPVEKDAKEEVKLFLGNAGTAMRPLTAAVVAAGGNATYVLDGVPRMRERPIGDLVVGLQQLGADVDCFLGTNCPPVRINGKGGLPGGKVKLSGSISSQYLSSLLMAAPLALEDVEIEIIDKLISVPYVEMTLKLMEHFGVTAEHSDSWDRFYIKGGQKYKSPGNAYVEGDASSAGYFLAGAAITGGTVTVEGCGTTSLQGDVKFAEVLEMMGAKVTWTDTSVTVTGPPRQPFGRKHLKAVDVNMNKMPDVAMTLAVVALFADGPTAIRDVASWRVKETERMVAIRTELTKLGATVEEGPDYCIITPPEKLNITAIDTYDDHRMAMAFSLAACAEVPVTIRDPGCTRKTFPNYFDVLSTFVKN
# B2: T2: wheat EPSPS mutant, SEQ ID NO: 18, merely containing the mutation P118(101)S; control (protein)
# chain: B1 chain with P118S, G269S
# B3: T4: wheat EPSPS mutant, SEQ ID NO: 22, mutation L216(195)P (protein)
# chain: B1 chain with L216P, G269S
# B4: T3: wheat EPSPS mutant, SEQ ID NO: 20, mutations S269(247)G and P118(101)S (protein)
# chain: B1 chain with P118S
# Tested on: transgenic rice plants
# Experiment: glyphosate resistance of the EPSPS mutant in transgenic rice plants sprayed with Roundup 41% ammonium glyphosate
# Assay type: in vivo, rice (Nipponbare)
# Details: 1× dosage 1060 g/hectare glyphosate sprayed; recorded on 10th day
# Text: A method for detecting the glyphosate resistance of G1 (SEQ ID NO: 4) provided in Example 1, G3 (SEQ ID NO: 8) provided in Example 2, G4 (SEQ ID NO: 10) provided in Example 3, the soybean EPSPS mutant G5 (SEQ ID NO: 12) provided in Example 4, T1 (SEQ ID NO: 16) provided in Example 5, T3 (SEQ ID NO: 20) provided in Example 6, T4 (SEQ ID NO: 22) provided in Example 7, T5 (SEQ ID NO: 24) provided in Example 8, the wheat EPSPS mutant T6 (SEQ ID NO: 26) provided in Example 9, R1 (SEQ ID NO: 30) provided in Example 10, R3 (SEQ ID NO: 34) provided in Example 11, R4 (SEQ ID NO: 36) provided in Example 12, R5 (SEQ ID NO: 38) provided in Example 13, and the rice EPSPS mutant R6 (SEQ ID NO: 40) provided in Example 14 in the transgenic rice is as follows:
# The plasmids (containing the EPSPS mutation gene) of the monoclonal resistant bacteria of pADV5-EPSPS in Examples 1-7 were extracted by a conventional method, followed by double enzyme digestion by Pac1 and BstEII, the small fragments were collected, and then the small fragments were ligated by using T4 DNA ligase, to the pGVP1 vectors that had undergone the same double enzyme digestion, to obtain a pGVP1-EPSPS vector having a structure as shown in FIG. 23.
# EHA105 (Agrobacterium tumefaciens) competent cells were transformed by the pGVP1-EPSPS vector, and single colonies were picked up to perform bacterial colony PCR detection to identify positive strains; then the positive strains were inoculated into 1 mL of YEP culture medium containing 50 μg·mL^−1 kanamycin and 50 μg·mL^−1 rifampin to propagate, and then preserved at −80° C., or used for subsequent experiment.
# 400 μl of bacterium containing the target gene vector preserved at −80° C. was added to a culture dish of solid culture media containing YEP+50 μg/mL rifampin+50 μg/mL kanamycin, and cultured in the dark at 28° C. for 24 hours, then this bacterium was added to an infection culture medium, and this bacterial solution was adjusted to OD=0.2 as an infection liquid.
# Sterilization and pre-culturing: mature rice (Nipponbare) seeds were manually shelled, and full seeds without bacterial plaque were selected, and sterilized according to following steps: putting the seeds into a 50 ml sterile centrifuge tube, adding 70% alcohol for disinfection for 30 seconds, pouring out the alcohol, and cleaning the seeds once with sterile water; adding 10-20 ml of 2.6% sodium hypochlorite solution for soaking and sterilizing for 20 minutes, pouring out the sodium hypochlorite solution, and soaking and cleaning the seeds with sterile water for 6-7 times, 3 minutes each time.
# Induction and subculturing: the seeds were put on sterile filter paper for drying, and mature embryos were put in an induction culture medium with 12 embryos in each dish; the culture dishes were sealed with a sealing film after the operation was finished, the mature embryos were cultured in the dark at 30° C. for 21-28 days, calluses were transferred into a fresh culture medium, and continuously cultured for about 7-14 days, and spherical calluses with a size of 1-2 mm were taken as infection receptors.
# the calluses were inoculated into a centrifuge tube or a culture cup, the prepared Agrobacterium tumefaciens suspension liquid was added for infection for 10 minutes, wherein the calluses were shaken several times; the bacterial solution was poured out, the calluses were taken out, and placed on sterile filter paper to suck out the surface bacterial solution (about 30 minutes); and the calluses were put on sterile filter paper in a culture dish, and cultured in the dark at 25° C. for 2-3 days.
# Recovery culturing: the calluses having undergone co-culturing were inoculated in a recovery culture medium, and cultured in the dark at 30° C. for 5-7 days. First round of screening: the calluses were transferred to screening culture media 1 (S1) and cultured in the dark at 30° C. for 14 days. […]
Molecule,%++&+++ (percentage of plant having medium and high glyphosate resistance to the total number of plants observed) [%],number of plants denoted by + (low glyphosate resistance),number of plants denoted by ++ (medium glyphosate resistance),number of plants denoted by +++ (high glyphosate resistance),number of plants denoted by − (no glyphosate resistance)
B1,27.0,28,15,2,18
B2,52.8,13,15,13,12
B3,35.6,30,18,8,7
B4,71.0,27,33,77,18

# Same assay, conditions: 1× glyphosate dosage
row,Molecule,"glyphosate resistance / survival of the rice transformed by the EPSPS, in words"
1,B1,obviously superior to that of the rice seedlings transformed by T0
2,B2,had relatively high resistance to glyphosate
3,B3,obviously superior to that of the rice seedlings transformed by T0
4,B4,had relatively high resistance to glyphosate

# Same assay, conditions: 2× dosage 2120 g/hectare sprayed to plants surviving 1×; recorded 10 days later
Molecule,%++&+++ (percentage of plant having medium and high glyphosate resistance to the total number of plants observed) [%],number of plants denoted by + (low glyphosate resistance),number of plants denoted by ++ (medium glyphosate resistance),number of plants denoted by +++ (high glyphosate resistance),number of plants denoted by − (no glyphosate resistance)
B1,1.6,32,1,0,30
B2,7.5,26,3,1,23
B3,18.2,40,0,4,34
B4,51.0,47,46,33,29

# Same assay, conditions: 2× glyphosate dosage
row,Molecule,"glyphosate resistance / survival of the rice transformed by the EPSPS, in words"
1,B1,"some of the transgenic rice seedlings transformed by T4, T1 and T5 still survived"
2,B3,"some of the transgenic rice seedlings transformed by T4, T1 and T5 still survived"

# Same assay, conditions: 5× dosage 5300 g/hectare sprayed to plants surviving 2×; recorded 10 days later
Molecule,&++&+++ (percentage of plant having medium and high glyphosate resistance to the total number of plants observed) [%],number of plants denoted by + (low glyphosate resistance),number of plants denoted by ++ (medium glyphosate resistance),number of plants denoted by +++ (high glyphosate resistance),number of plants denoted by − (no glyphosate resistance)
B1,0.0,2,0,0,61
B2,0.0,21,0,0,32
B3,0.0,12,0,0,66
B4,25.8,75,38,2,40

# Same assay, conditions: 5× glyphosate dosage
row,Molecule,"glyphosate resistance / survival of the rice transformed by the EPSPS, in words"
1,B1,"some of the transgenic rice seedlings transformed by T4, T1 and T5 still survived"
2,B2,none of the rice seedlings containing the wheat EPSPS mutant T2 achieved the level of medium glyphosate resistance
3,B3,"some of the transgenic rice seedlings transformed by T4, T1 and T5 still survived"

# Same assay, conditions: 20× dosage 21200 g/hectare sprayed to plants surviving 5×; recorded 10 days later
Molecule,&++&+++ (percentage of plant having medium and high glyphosate resistance to the total number of plants observed) [%],number of plants denoted by + (low glyphosate resistance),number of plants denoted by ++ (medium glyphosate resistance),number of plants denoted by +++ (high glyphosate resistance),number of plants denoted by − (no glyphosate resistance)
B1,0.0,0,0,0,63
B2,0.0,11,0,0,42
B3,0.0,0,0,0,78
B4,3.2,57,5,0,93

# Same assay, conditions: 20× glyphosate dosage
row,Molecule,"glyphosate resistance / survival of the rice transformed by the EPSPS, in words"
1,B2,none of the rice seedlings containing the wheat EPSPS mutant T2 achieved the level of medium glyphosate resistance

# Reference: patent publication US11584938B2, “Plant EPSPS mutant containing L195P and S247G mutations and encoding gene and use thereof” (GEVOTO LLC, priority 2017, dated 2023)
